According to patent publication US20250297216A1, “METHOD FOR PRODUCING MILK LIKE PRODUCTS” (SOCIETE DES PRODUITS NESTLE S.A., priority 2021, published 2025):

Test system: iPSCs derived mammary gland organoids
Assay: Flow cytometry quantification of mammary gland progenitor markers in 3D iPSC differentiation (42-day and shortened 31-day protocols)
Type: cell-based, human
Details: 20 ng/ml BMP4, 1 μM RA, single or combination, 42 days and 31 days protocols, compared to control condition
Excerpt: Scheme summarizing different procedures for the generation of mammary gland progenitors in 42 days (a), using bone morphogenetic protein 4 (BMP4) (b), retinoic acid (RA) (c), combinations of BMP4 and RA (d) and their combination in shortened time-course (31 days) (e). The red boxes indicate the period of addition of BMP4 and/or RA.

B1: BMP4: bone morphogenetic protein 4, growth factor added to the culture medium (protein, UniProt P12644 293-408, looked up)
Bone morphogenetic protein 4: SPKHHSQRARKKNKNCRRHSLYVDFSDVGWNDWIVAPPGYQAFYCHGDCPFPLADHLNSTNHAIVQTLVNSVNSSIPKACCVPTELSAISMLYLDEYDKVVLKNYQEMVVEGCGCR
  expression of mammary gland progenitor markers (EpCAM, CD49f, MUC1, GATA3): can induce the expression of mammary gland progenitor markers
